Data: PMC11423973 (2024)

Molecular target: SFTSV Gn head domain (Severe fever with thrombocytopenia …)
Experiment: BLI

B1: c40C10 (human IgG1 antibody with the heavy and light chain variable regions of mAb 40C10) (antibody, V domains shown)
VH: EVQLQQSGAELVKPGASVKLSCKASGYTFTSHYMYWVKQRPGQGPEWIGEINPTNGGTKFNEKFKSKATLTVDKSSSTAYIQLSSLTSEDSAVYYCSSSGYDYDGRAYFDYWGQGTTLTVSS
VL: DVVMTQTPKFLLVSAGDRVTITCKASQSVSNDVAWYQQKPGQSPKLLIYYASYRYTGVPDRFTGSGYGTDFTFTISAVQAEDLAVYFCQQNYNSPYTFGGGTKLEIK
Kd: 0.582 nM
